In paper PMC10397247:
Like-named read-outs stand apart in the source and are kept apart here.

Tests used:
[1] = molecular target: T1, 4H496-bH; test: two-hybrid library CCNG1;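 also: natural log of median RNA to DNA barcode read ratio; higher means stronger binding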
T1 chain: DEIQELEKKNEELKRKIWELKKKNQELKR

[2] = molecular target: T2, 4H3632-bH; test: two-hybrid library CCNG1;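 also: natural log of median RNA to DNA barcode read ratio; higher means stronger binding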
T2 chain: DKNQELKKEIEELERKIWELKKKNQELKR

[3] = molecular target: T3, 4H342-bH; test: two-hybrid library CCNG1;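 also: natural log of median RNA to DNA barcode read ratio; higher means stronger binding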
T3 chain: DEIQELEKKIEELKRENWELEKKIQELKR

[4] = molecular target: T4, 4H3070-bH; test: two-hybrid library CCNG1; settings: mean of both orientations;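 also: natural log of median RNA to DNA barcode read ratio; higher means stronger binding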
T4 chain: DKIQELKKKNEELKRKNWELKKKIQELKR

[5] = molecular target: T5, 4H2961-AA; test: two-hybrid library CCmax; settings: mean of both orientations;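 also: natural log of median RNA to DNA barcode read ratio; higher means stronger binding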
T5 chain: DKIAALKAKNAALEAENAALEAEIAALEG

[6] = molecular target: T6, 4H1878-AA; test: two-hybrid library CCmax; settings: mean of both orientations;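 also: natural log of median RNA to DNA barcode read ratio; higher means stronger binding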
T6 chain: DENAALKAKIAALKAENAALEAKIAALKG

[7] = molecular target: T7, 4H2760-AA; test: two-hybrid library CCmax; settings: mean of both orientations
T7 chain: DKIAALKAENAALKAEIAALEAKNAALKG

[8] = molecular target: T8, 4H3777-AA; test: two-hybrid library CCmax; settings: mean of both orientations
T8 chain: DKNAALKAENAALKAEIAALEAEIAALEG

[9] = molecular target: T9, 4H3629-AA; test: two-hybrid library CCmax; settings: mean of both orientations
T9 chain: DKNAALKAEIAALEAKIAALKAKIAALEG

[10] = molecular target: T10, 4H63-AA; test: two-hybrid library CCmax; settings: mean of both orientations
T10 chain: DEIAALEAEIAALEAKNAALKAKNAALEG

[11] = molecular target: T11, 4H249-AA; test: two-hybrid library CCmax
T11 chain: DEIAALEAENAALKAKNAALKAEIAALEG

[12] = molecular target: T12, 4H1384-AA; test: two-hybrid library CCmax
T12 chain: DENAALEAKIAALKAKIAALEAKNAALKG

[13] = molecular target: T13, 4H446-AA; test: two-hybrid library CCmax; settings: mean of both orientations
T13 chain: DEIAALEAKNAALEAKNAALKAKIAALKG

[14] = molecular target: T14, 4H3619-AA; test: two-hybrid library CCmax; settings: mean of both orientations
T14 chain: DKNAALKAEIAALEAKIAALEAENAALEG

[15] = molecular target: T15, 4H324-AA; test: two-hybrid library CCmax; settings: mean of both orientations
T15 chain: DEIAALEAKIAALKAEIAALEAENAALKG

[16] = molecular target: T16, 4H1593-AA; test: two-hybrid library CCmax; settings: mean of both orientations
T16 chain: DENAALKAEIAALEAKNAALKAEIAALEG

[17] = molecular target: T17, 4H2604-AA; test: two-hybrid library CCmax; settings: mean of both orientations
T17 chain: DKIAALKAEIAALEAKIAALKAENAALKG

[18] = molecular target: T18, 4H2903-AA; test: two-hybrid library CCmax; settings: mean of both orientations
T18 chain: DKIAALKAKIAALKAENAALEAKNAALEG

[19] = molecular target: T19, 4H341-AA; test: two-hybrid library CCmax; settings: mean of both orientations
T19 chain: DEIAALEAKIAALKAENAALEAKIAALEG

[20] = molecular target: T20, 4H235-AA; test: two-hybrid library CCmax; settings: mean of both orientations
T20 chain: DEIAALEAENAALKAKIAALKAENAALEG

[21] = molecular target: T21, 4H2774-AA; test: two-hybrid library CCmax; settings: mean of both orientations
T21 chain: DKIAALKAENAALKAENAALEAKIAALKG

[22] = molecular target: T22, 4H3094-AA; test: two-hybrid library CCmax; settings: mean of both orientations
T22 chain: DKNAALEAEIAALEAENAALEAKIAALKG

[23] = molecular target: T23, 4H3449-AA; test: two-hybrid library CCmax; settings: mean of both orientations
T23 chain: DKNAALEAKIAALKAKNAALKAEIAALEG

[24] = molecular target: T24, 4H3974-AA; test: two-hybrid library CCmax; settings: mean of both orientations
T24 chain: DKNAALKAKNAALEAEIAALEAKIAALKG

[25] = molecular target: T25, 4H2621-AA; test: two-hybrid library CCmax; settings: mean of both orientations
T25 chain: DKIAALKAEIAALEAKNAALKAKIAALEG

[26] = molecular target: T26, 4H2947-AA; test: two-hybrid library CCmax; settings: mean of both orientations
T26 chain: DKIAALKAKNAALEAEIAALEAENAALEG

[27] = molecular target: T27, 4H3915-AA; test: two-hybrid library CCmax; settings: mean of both orientations
T27 chain: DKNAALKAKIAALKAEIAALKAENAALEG

[28] = molecular target: T28, 4H380-AA; test: two-hybrid library CCmax; settings: mean of both orientations
T28 chain: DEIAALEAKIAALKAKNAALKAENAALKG

[29] = molecular target: T29, 4H3049-AA; test: two-hybrid library CCmax; settings: mean of both orientations
T29 chain: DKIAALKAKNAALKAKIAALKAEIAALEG

[30] = molecular target: T30, 4H2580-AA; test: two-hybrid library CCmax; settings: mean of both orientations
T30 chain: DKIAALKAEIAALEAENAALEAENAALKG

[31] = molecular target: T31, 4H432-AA; test: two-hybrid library CCmax; settings: mean of both orientations
T31 chain: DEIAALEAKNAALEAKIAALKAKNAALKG

[32] = molecular target: T32, 4H1449-AA; test: two-hybrid library CCmax; settings: mean of both orientations
T32 chain: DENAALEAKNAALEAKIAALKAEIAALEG

[33] = molecular target: T33, 4H2728-AA; test: two-hybrid library CCmax; settings: mean of both orientations
T33 chain: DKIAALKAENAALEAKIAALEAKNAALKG

[34] = molecular target: T34, 4H464-AA; test: two-hybrid library CCmax; settings: mean of both orientations
T34 chain: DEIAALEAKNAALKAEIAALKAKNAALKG

[35] = molecular target: T35, 4H1360-AA; test: two-hybrid library CCmax; settings: mean of both orientations
T35 chain: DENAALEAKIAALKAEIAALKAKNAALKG

[36] = molecular target: T36, 4H483-AA; test: two-hybrid library CCmax; settings: mean of both orientations
T36 chain: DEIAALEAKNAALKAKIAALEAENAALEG

[37] = molecular target: T37, P2-AA-1HGe-A; test: two-hybrid library CCmax
T37 chain: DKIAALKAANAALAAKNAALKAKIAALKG

[38] = molecular target: T38, 4H3969-AA; test: two-hybrid library CCmax; settings: mean of both orientations
T38 chain: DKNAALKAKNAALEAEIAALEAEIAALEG

[39] = molecular target: T39, 4H2699-AA; test: two-hybrid library CCmax; settings: mean of both orientations
T39 chain: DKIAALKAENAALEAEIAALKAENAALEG

[40] = molecular target: T40, 4H3782-AA; test: two-hybrid library CCmax; settings: mean of both orientations
T40 chain: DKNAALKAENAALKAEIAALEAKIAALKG

[41] = molecular target: T41, 4H1913-AA; test: two-hybrid library CCmax; settings: mean of both orientations
T41 chain: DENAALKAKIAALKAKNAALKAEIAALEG

[42] = molecular target: T42, 4H1454-AA; test: two-hybrid library CCmax; settings: mean of both orientations
T42 chain: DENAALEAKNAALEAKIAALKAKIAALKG

[43] = molecular target: T43, 4H3595-AA; test: two-hybrid library CCmax; settings: mean of both orientations
T43 chain: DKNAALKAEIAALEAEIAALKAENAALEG

[44] = molecular target: T44, 4H3939-AA; test: two-hybrid library CCmax; settings: mean of both orientations
T44 chain: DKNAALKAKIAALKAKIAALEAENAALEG

[45] = molecular target: T45, 4H1558-AA; test: two-hybrid library CCmax; settings: mean of both orientations
T45 chain: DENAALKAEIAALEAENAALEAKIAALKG

[46] = molecular target: T46, 4H3414-AA; test: two-hybrid library CCmax; settings: mean of both orientations
T46 chain: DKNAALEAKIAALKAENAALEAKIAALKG

[47] = molecular target: T47, 4H3129-AA; test: two-hybrid library CCmax; settings: mean of both orientations
T47 chain: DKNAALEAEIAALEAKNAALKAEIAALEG

B1: 4H3070-bH (peptide)
chain: DKIQELKKKNEELKRKNWELKKKIQELKR
interaction score [1]: -0.307
interaction score [2]: -0.214
interaction score [3]: 1.49
interaction score [4]: 0.665

B2: 4H1384-AA (peptide)
chain: DENAALEAKIAALKAKIAALEAKNAALKG
interaction score [5]: -1.37
interaction score [6]: -1.08
interaction score [7]: -1.74
interaction score [8]: 0.578
interaction score [9]: 0.973
interaction score [10]: -0.475
interaction score [11]: -1.81
interaction score [12]: 0.25
interaction score [13]: -2.33
interaction score [14]: 2.13
interaction score [15]: 0.82
interaction score [16]: -1.48
interaction score [17]: 1.45
interaction score [18]: -0.437
interaction score [19]: -0.177
interaction score [20]: -1.3
interaction score [21]: -1.81
interaction score [22]: -0.731
interaction score [23]: -1.82
interaction score [24]: 0.121
interaction score [25]: -0.862
interaction score [26]: -1.05
interaction score [27]: -0.264
interaction score [28]: -1.4
interaction score [29]: -0.361
interaction score [30]: 0.35
interaction score [31]: -1.33
interaction score [32]: -1.1

B3: 4H1349-AA (peptide)
chain: DENAALEAKIAALKAEIAALEAKIAALEG
interaction score [5]: -2.4
interaction score [6]: -0.906
interaction score [33]: -1.04
interaction score [7]: -0.562
interaction score [8]: -0.808
interaction score [34]: -0.554
interaction score [9]: 2.08
interaction score [10]: -0.724
interaction score [35]: 0.392
interaction score [36]: -1.07
interaction score ([11]; mean of both orientations): -2.14
interaction score [37]: -1.79
interaction score [38]: -1.13
interaction score ([12]; mean of both orientations): 1.03
interaction score [39]: -1.39
interaction score [40]: 0.414
interaction score [13]: -1.37
interaction score [41]: -0.124
interaction score [14]: 0.504
interaction score [15]: 1.84
interaction score [16]: 0.813
interaction score [17]: 1.42
interaction score [42]: -0.224
interaction score [18]: -0.278
interaction score [19]: -0.142
interaction score [20]: -2.02
interaction score [21]: -2.01
interaction score [22]: -0.703
interaction score [23]: -0.531
interaction score [24]: 0.171
interaction score [25]: 2.18
interaction score [43]: 1.05
interaction score [44]: 0.491
interaction score [26]: -1.49
interaction score [45]: -0.218
interaction score [27]: 0.312
interaction score [28]: -0.754
interaction score [29]: -0.0176
interaction score [46]: -0.92
interaction score [30]: -0.799
interaction score [47]: 0.123
interaction score [31]: -1.21
interaction score [32]: -0.154
